Literature values, collected in patent publication US20230090114A1, “METHODS FOR PROMOTING WEIGHT LOSS” (89BIO LTD., priority 2020, published 2023).

Conditions: in vivo; cited from earlier work

B1: recombinant human FGF-21: recombinant human FGF-21 (SEQ ID NO: 1 is native human FGF-21) (protein, listed as Homo sapiens)
chain: MHPIPDSSPLLQFGGQVRQRYLYTDDAQQTEAHLEIREDGTVGGAADQSPESLLQLKALKPGVIQILGVKTSRFLCQRPDGALYGSLHFDPEACSFRELLLEDGYNVYQSEAHGLPLHLPGNKSPHRDPAPRGPARFLPLPGLPPALPEPPGILAPQPPDVGSSDPLSMVGPSQGRSPSYAS
half-life: 1 to 2 h
